Our source for the protein production values is a protein production outcome set (Wang et al. 2014).

The nature of the data set: label from the status in PepcDB records.
As for “MIRAYKFLLRPTVRQAQALAEMLRDHCSLYNAALQERRDAWRHPSKTTVKYGGQSAQLKDIRAFDPERQGRWSFSSQQATLRRLDKAFAAFFRRVKSGETPGYPRFRGVNWFDTVDFPKDGDGCRWNSTPHDPATRVRLQGVGHVKVNQHRPVAGRVKTVSVKREGRKWFVVLTAEQDQPEPLPATGSAAGIDLGIANFLADSGGGFVPNPRHGRRAADKLQAAQQALARFPRRKAKDRTANHRRAVGKVAQLHGKVRRQRLDHAHKTALGLVRAHDFIAHEDLRIRNMSKAPAPKPDPDKPGTFLPNGAAAKAGLNKSINDAGWGVFLTILHAKAESAGREVIAVDPRDTSRTCPECGHTAKENRPTQEKFHCVACGHHAHADTVAATNVLRAGLVRRNANPA”, the protein production entry is given as “failed”. Take “EALQGLLGAGWWELCPDTAEILLASRLAASLHLPEDGARLNVQAWLELIHPADRGELSSRLQELKLGKPLLLNVRLHEPDPSAPQRWYRLQGQALGRGESQRLVGFMLDISD”: the protein production entry is “failed”. “SLNEGQEMEEQFALLLETLKNQQMNEFRELFLALHIYEQGQFYQSLDEKDRQHLYNYLSPKELADMFDVIEEDNENMKDYLAEMRPSYAADMLAEMYTDNAVDLLNMLDKSQKAKYLSLLSSEEAGEIKELLHYEDETAGAIMTTEFVSIVANQTVRSAMYVLKNQADMAETIYYVYVVDQENHLVGVISLRDLIVNDDDTLIADILNERVISVHVGDDQEDVAQTIRDYDFLAVPVTDYDDHLLGIVTVDDIIDVIDDEAASDYSGLAGVDVEEVSENPLKAASK”: the protein production entry is listed as “not failed”. With “MANWRGAGDSLSTGTGGSEAPPRKSPARLHQWRKLRVSHDDRTCPYQRCRHHLLRRIADARRRYRLLCRRSEHEHSRRVDRSFAEARHGRRRPGRCRSSHPQGCGHRQRDPHKIMSAAPAAPALDALGPDTPAHTVDAFHRGRFWLVQPKHGGHRAGMDAMMLAASVPSVFGGRLADFGAGAGAAGLAVLSRCPAARAVLVERAPEMAAFASATLAHPGNAHLSDRASVLVADVTVSGQARVAAGLADNDFDYVIMNPPFNAARDRATPDRLRKEAHVMEDGLFESWIRSAAAVVRPRGGLAVIARPEQLGAILDAMSGRFGDAEMLAVHPRPDAAAIRIIVRAALGARGKLAIRPPLMLHAQAGNGPDERSEMITNGLASLFGD”, the protein production result is “failed”.

Regarding “MNIITTDPLFGFVLTVLVFMIGVRINENFRKPWTNPLLFATVVIILILSLAHIPYKNYYIGGSIINDLIGPSTVALGIPLYKTFHLMKHHARSIVSSIAIAALVNCIFTALCAKFFSLSKLASLSIFPKSVTTAMAMGISDKMHGVEQITVVVVVATGILTSVLGGPLLKLFRITDPVAQGIALGGTGHAVGTGTAIELGKTQGAMAALSIGVTGIMYVIFAPIIAKIILGY”, the protein production entry is “failed”. With “MNTYLKNSPGFWIGRIHHKLKNRMNQRLKPYDLTAEQRLILLRLFEFGEMTQQQLCQKTFTEPSNITLTLRRMESHGYVRKKPHPKDKRASLIEATPKALSIQNELERIGLEITDSLLLEVDPSEKETLLRVLQAMYQKMLQEEAIEEFSF” the entry was “failed”; with “MVEAIIFDMDGVLFDTEKYYYDRRASFLGQKGISIDHLPPSFFIGGNTKQVWENILRDEYDKWDVSTLQEEYNTYKQNNPLPYKELIFPDVLKVLNEVKSQGLNIGLASSSVKADIFRALEENRLQAFFDIVLSGEEFKESKPNPEIYLTALKQLNVQASRALIIEDSEKGIAAGVAADVEVWAIRDNLFGMDQSAAKGLLDSLTDVLDLI”, “not failed”.

In the case of “MINIRSFRDLLRLFFIFKREVKITVLVTFIIIVLGAFLLPNRFESTALLLVKPGRDTSTLPIEIADRQAVVIPSAQRDPIIDEERILGGEPIARKVAEKYLDDLSRQPQPSGALATLKNAVKGAVEGIVDLLRGALQLVGLVEKQTPVERLTERMLKSFSVTHAAGSSVMEVSFTWNDPKVAQTVVKSWIEQYQQERAQTLGRKSLYAFYETESGATNQRILGYKKQIADYLNQLGAVSIEERLNDISRNLNNLKGEHLNTTRAVASTRSGLETIQKQLNSMKKEISIGRQMSLNPDRQDLQQRINAKQIERQEMLRTFKEGAPPVRAMDAAIANLQALLKSESGTVQRSENLAPNPVYTRLQNSFADQQASLSRLQTQAAQQETQLLKLEQERRQALAVEPELARLQRELSAAEKSFALYSDSTEKARIDRELDQSQISNIAVIEEATFKPSRVFPKSLSMLLAAIPLSLAVGLLALYFFYLLDQRIHDGDQIEERFGVKVWTSLQDLDSHLPQRNSAFTASLYRLYGILPLKQVALQGLVIGLTSARRGEGVSFVTAHLRDLLQERGHVVRVNGAPNAVPGEIVLLEASGFFSNQEAFVSLREADLIALIVEAETTTVPVLQNALSILTTAFKRVDGIIINRRRFGIPENVLNFLARIRSPH”, the protein production entry is “failed”. On to “MSRKPRYSLALEVEPANPNEAYRHYMKKLSYETDIADLSIDIKKGYEGIIVVDVRDAEAYKECHIPTAISIPGNKINEDTTKRLSKEKVIITYCWGPACNGATKAAAKFAQLGFRVKELIGGIEYWRKENGEVEGTLGAKADLFWNMKKESKNKKSLDGSTQ”, for which the protein production result is listed as “failed”. For the sequence “MEEKAKMRRLSTWKLKLRMFLATVLLFGLIYAILMVVGSILGLGGPLFYALLGFGVIFLQYLISPKIVELTMNVHYVSEAEAPRLHAMVDELARRAGIPKPMVGIAEIALPNAFAFGRTKADGRVCVTRGILNLLDEEELRAVLGHEISHIKHSDMIVMTLVSAVPLICYYIFWSTVFSRDDEANLVGIAALIAYFIGQLIVLFISRTREYYADQGSVEIGGQPHKLASALYKLVLRLSPVQQGRPETGRGCQGLLPE”, the protein production result is “failed”. For the sequence “MMDNDNSLNKRPTFKRALRNISMTSIFITMMLIWLLLSVTSVLTLKQYAQKNLALTAATMTYSLEAAVVFADGPAATETLAALGQQGQFSTAEVRDKQQNILASWHYTRKDPGDTFSNFISHWLFPAPIIQPIRHNGETIGEVRLTARDSSISHFIWFSLAVLTGCILLASGIAITLTRHLHNGLVEALKNITDVVHDVRSNRNFSRRVSEERIAEFHRFALDFNSLLDEMEEWQLRLQAKNAQLLRTALHDPLTGLANRAAFRSGINTLMNNSDARKTSALLFLDGDNFKYINDTWGHATGDRVLIEIAKRLAEFGGLRHKAYRLGGDEFAMVLYDVQSESEVQQICSALTQIFNLPFDLHNGHQTTMTLSIGYAMTIEHASAEKLQELADHNMYQAKHQRAEKLVR”, the protein production entry is reported as “failed”. With “MRRENTKSNIDFKSIFDSLPDLYLLLDRDFNIVGVSDAYLQATMVSRKQILGKNVFDAFPDNPNDPKATGAKNLYASLLRVLKNKSADTMAIQKYDIQRPADRGGGFEERYWSPINTPVLGADQEVEYIIHRVEDVT”, the protein production result is reported as “failed”. For “MPTISTSVCVNYTQDQMYELVNDVADYPKYLPLCRDVRVLSAADRHIKATITLAKGAVRLNFTTANTMEPGRHIHMKLVDGPFKYLRGNWRFDANPHGGCDVSFRVDFEFANPLLQMALGGIFREVMESLVAAFCNQAAKRYGNAGPALPPGQAQDGVGRSGSV”, the protein production result is on record as “failed”.

For “MSSLAQREERSSDGREPARAWAVTIVVLGLLLVIWPFVRTPPLPIAPAYAHLLGAWLGAVVALAAMARALRPHRRRGPPDA”, the protein production entry is “failed”. As to “MLLEVIPLTLPLLLTLLPIVVILVMLLVFRKAADVSGIIGWLAISVVAWLGFQTAPEVILRSTAAGFIRSFSVSLIVATSLLQMALMEKTGALRRITIFIRTIASDNRAVQIMMINIGFGTLMVAVGATPVSILPPILLAMGYSTYVAIALPAIGYDSLCTYALLGAPIVVFVDIANSFLGKGNEIALHQAGMVFYMFLPVVSTMIGFCMLWIVGKWQAIRDGWLPCLLTGAVIGVVARFTNQYDNLVVLTGVLCGIAVIAAMAAYLVVTGGKVIDRSLLSAEEREFAAAMPLWRAFMPWTLLVILILVLNVPQDLFSWLYRTMKLPIAGLTADGKPLDTRALWQAYTWILVSTILAVPFLKPTGEQLRETVRTWVRRAPRPVFAAAVFFAIGEIMNMAGYDMAAGRFVVPSMVTVLADSSALAFQGMYGEVVAFIGLFGGFITGSEASTIAMFAKYTMTTAKNLDMPLSGLIIVTAGLAFGGGLASVISPAKLQNAAAAIDRIGEEGKVIRIAFVFALLLTLVTSLFVVVLLTVNGMGRVS”, the protein production entry was “failed”.

Consider “MLLENFYKIIHIKEREDGKQEIEIELNPGHVLYQGHFPGQPVVPGVCTLQIIKESAEQIASQPLQYVQIASSKFLSAINPLETPLLQLFIRLEKTEEHLFKLQAEGICNGKEFIKLKAVLMASKYQLEHHHHHH”, for which the protein production result is on record as “not failed”. “MTCPEQAIEHDDMNVVVDVEKCKFCMDCIPVCPTGSIDNWRVVDTPYSLEDQYGWMDLPPQEDVAGDEAGLEALDDAMAALLAEAHKGAGGKSRAPATASKPTINLYTLGKPAEARVTGNYRLTAESSDSDVRHIILDFGGQPFPVLEGQSIGIIPPGTDEAGNPHLPRLYSVSSPRDGERPNFNNLSLTVKREPHGICSNHVCDLKPGDTVRVTGPFGATFLMPSDPAAHLLMICTGTGSAPFRAFTMRRQRESPKLRNSLTLVFGARRPQELPYFGPLAKVPEQFMAKHFAFSRQDGAPKHYVQDRLRAEADRVGELLADPLTHVYVCGLKAMEQGVEEAFKDIARAQGIDWTGLRDRMRDEGRYHVETY”: the protein production result is listed as “failed”. Turning to “MSLSASLGATRFRPDLLSLDDLDEAQLHALLTLAHQLKRGERVANLHGKVLGLVFLKASTRTRVSFTVAMYQLGGQVIDLSPSNTQVGRGEPVRDTARVLGRYVDGLAIRTFAQTELEEYAHYAGIPVINALTDHEHPCQVVADLLTIRENFGRLAGLKLAYVGDGNNVAHSLLLGCAKVGMSIAVATPEGFTPDPAVSARASEIAGRTGAEVQILRDPFEAARGAHILYTDVWTSMGQEAETQHRLQLFEQYQINAALLNCAAAEAIVLHCLPAHRGEEITDEVMEGPRSRIWDEAENRLHAQKAVLAALMGGREGHHHHHH”, the protein production entry was “not failed”.

Consider “SEAKVTRSCAETRQVLGARGYSLNLIPPALISGEHLRVCPQEYTCCSSETEQRLIRETEATFRGLVEDSGSFLVHTLAARHRKFDEFFLEMLSVAQHSLTQLFSHSYGRLYAQHALIFNGLFSRLRDFYGESGEGLDDTLADFWAQLLERVFPLLHPQYSFPPDYLLCLSRLASSTDGSLQPFGDSPRRLRLQITRTLVAARAFVQGLETGRNVVSEALKVPVSEGCSQALMRLIGCPLCRGVPSLMPCQGFCLNVVRGCLSSRGLEPDWGNYLDGLLILADKLQGPFSFELTAESIGVKISEGLMYLQENSAKVSAQVFQECGPPDPVPARNRRAPPPREEAGRLWSMVTEEERPTTAAGTNLHRLVWELRERLARMRGFWARLSLTVCGDSRMAADASLEAAPCWTGAGRGRYLPPVVGGSPAEQVNNPELKVDASGPDVPTRRRRLQLRAATARMKTAALGHDLDGQDADEDASGSGGGQQYADDWMAGAVAPPARPPRPPYPPRRDGSGGKGGGGSARYNQGRSRSGGASIGFHTQTILILSLSALALLGPR”, for which the protein production entry is on record as “failed”.

As for “QEQRMSHHYATIEVSQQLRQLLGDQLVILLRETPDGQALERSQNDFRRVLEQGRANTVDSAEQAALDGVRDAYLQLQAHTPALLEAPMADNDGFSEAFNGLRLRLQDLQQLALAGISEAETSARHRA”, the protein production entry is “not failed”. Take “MSARSLYQDTAVAALRDDLALALCAAAHHGLGEGVCNHFSVALPGQAGAFLLNPRGLMWSEVRAEDIVLVDAAGNKLAGRHEVEPTAMFIHAAIHQVAGKACVLHTHMPYATALTLTEARMLDTTLSQNAMRFHGRVAADRRYNGLALDAAEGERIARAMDGADIAFLGNHGVVVCGERIDYAFDDLYYLERACCAQVLAESSGRPLVPLDAALAASVAGQARSERLQSTLFFEALRRALGLEHHHHHH”: the protein production result is given as “failed”.

“MKGTKKLAWLGLLLVLPVLAQATTVTYSALTVRELGNFLMNLPTGFYAIAPAAAKNMMDTVDVFILDVREPNEFAGERIQGAVNIPIRDLPKRVGELPKGKPIIVYCKVGHRGSMAMMFLRGQGYNVQSISGGLDGWKNAGLPVVK”: the protein production entry is given as “failed”.
